{"source": "patent US20240294634A1", "about": "(INNATE PHARMA, published 2024)", "binders": {"B1": {"name": "3H5 (antibody, human IgG1, V domains shown)", "VH": "QVQLKESGPGLVAPSQSLSITCTVSGFSLTSYGVSWVRQPPGKGLEWLGVIWGDGSTNYHSALISRLSISKDNSKSQVFLKLNSLQTDDTATYYCAKPRWDDYAMDYWGQGTSVTVSS", "VL": "DIQMTQTTSSLSASLGDRVTISCRASQDISNYLNWYQQKPDGTVKLLIYYTSRLHSGVPSRFSGSGSGTDYSLTISNLEQEDIATYFCQQGNTLWTFGGGTKLEIK"}, "B2": {"name": "12D12 (antibody, human IgG1, V domains shown)", "VH": "QVQLQQPGAELVKPGASVRMSCKASGYTFTSYWVHWVKQRPGQGLEWIGVIDPSDSYTSYNQNFKGKATLTVDTSSKTAYIHLSSLTSEDSAVYFCARGERYDGDYFAMDYWGQGTSVTVSS", "VL": "DIVMTQSPASLSVSVGETVTITCRASENIYSNLAWYQQKQGKSPQLLVYAATNLADGVPSRFSGSRSGTQYSLKINSLQSEDFGTYYCQHFWNTPRTFGGGTKLEIK", "notes": "also called 12012"}, "B3": {"name": "18E1 (antibody, human IgG1, V domains shown)", "VH": "QVQLQQSGAELVKPGASVRLSCKASGYTFTAHTIHWVKQRSGQGLEWIGWLYPGSGSIKYNEKFKDKATLTADKSSSTVYMELSRLTSEDSAVYFCARHTNWDFDYWGQGTTLTVSS", "VL": "NIVLTQSPASLAVSLGQRATISCKASQSVDYGGASYMNWYQQKPGQPPKLLIYAASNLESGIPARFSGSGSGTDLTLNIHPVEEEDAAMYYCQQSNEEPWTFGGGTKLEIK"}, "B4": {"name": "27H5 (antibody, human IgG1, V domains shown)", "VH": "QVQLKESGPGLVAPSQSLSITCTVSGFSLTSYGVSWVRQPPGKGLEWLGVIWGDGNTNYHSALISRLSISKDNSKSQVFLKLNSLQTDDTATYYCARTNWDGWFAYWGQGTLVTVSA", "VL": "DIVMTQSHKFMSTSVGDRVSITCKASQDVGTAVAWYQQKPGQSPKLLIYWASTRHTGVPDRFTGSGSGTDFTLTISNVQSEDLADYFCQQYRSYPLGTFGGGTKLEIK"}, "B5": {"name": "2H2A (antibody, V domains shown)", "VH": "EVKLEESGPELVKPGASVKLSCKASGYTFTNYYMQWVKQRPGQGLEWIGWIFPGSGESSYNEKFKGKATLSADTSSTTAYMQLSSLTSEDSAVYFCARTWNYDARWGYWGQGTTLTVSS", "VL": "DILMTQSPASLAVSLGQRATISCIPSESIDSYGISFMHWYQQKPGQPPKLLIYRASNLESGIPARFSGSGSRTDFTLTINPVEADDVATYYCQQSNEDPFTFGSGTKLELK"}}, "key": {"[1]": {"target": "T1, ILT-2_6×His recombinant protein (human, UniProt Q8NHL6 24-458)", "T1 construct": "also called recombinant 6×HIS tagged ILT2; recombinant human ILT2 proteins", "T1 sequence (Q8NHL6 other isoform, or with tags, fused parts or gaps limits assumed)": "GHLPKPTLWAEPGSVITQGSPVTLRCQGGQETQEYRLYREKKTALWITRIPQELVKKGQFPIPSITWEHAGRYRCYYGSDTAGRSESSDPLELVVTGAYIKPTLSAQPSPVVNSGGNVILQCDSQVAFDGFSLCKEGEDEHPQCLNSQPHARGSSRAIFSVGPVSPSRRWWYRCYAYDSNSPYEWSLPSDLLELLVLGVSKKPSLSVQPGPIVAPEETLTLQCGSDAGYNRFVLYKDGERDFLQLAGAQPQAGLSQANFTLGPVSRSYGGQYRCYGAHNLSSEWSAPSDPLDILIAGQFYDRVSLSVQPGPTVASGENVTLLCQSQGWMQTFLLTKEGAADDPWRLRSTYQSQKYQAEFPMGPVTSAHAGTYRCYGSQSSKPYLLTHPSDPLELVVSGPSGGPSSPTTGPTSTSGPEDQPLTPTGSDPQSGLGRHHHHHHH", "assay": "SPR, mAb captured on Protein-A, soluble ILT2 analyte", "method": "Measurements were performed on a Biacore T200 apparatus (Biacore GE Healthcare) at 25° C. In all Biacore experiments HBS-EP+ (Biacore GE Healthcare) and NaOH 10 mM served as running buffer and regeneration buffer respectively. Sensorgrams were analyzed with Biacore T100 Evaluation software. Protein-A was purchased from (GE Healthcare). Human ILT2 recombinant proteins were cloned, produced and purified at Innate Pharma. Protein-A proteins were immobilized covalently to carboxyl groups in the dextran layer on a Sensor Chip CM5. The chip surface was activated with EDC/NHS (N-ethyl-N′-(3-dimethylaminopropyl) carbodiimidehydrochloride and N-hydroxysuccinimide (Biacore GE Healthcare)). Protein-A was diluted to 10 μg/ml in coupling buffer (10 mM acetate, pH 5.6) and injected until the appropriate immobilization level was reached (i.e. 2000 RU). Deactivation of the remaining activated groups was performed using 100 mM ethanolamine pH 8 (Biacore GE Healthcare). […] For blank subtraction, cycles were performed again replacing ILT2 proteins with running buffer. The monovalent affinity analysis was conducted following a regular Capture-Kinetic protocol as recommended by the manufacturer (Biacore GE Healthcare kinetic wizard). Seven serial dilutions of human ILT2 proteins, ranging from 6.25 to 400 nM were sequentially injected over the captured antibodies and allowed to dissociate for 10 min before regeneration. The entire sensorgram sets were fitted using the 1:1 kinetic binding model."}, "[2]": {"target": "T2, Human ILT-2 (complete form) expressed at the cell surface (human, UniProt Q8NHL6 24-650)", "T2 construct": "also called LILRB1; CHO-ILT2", "T2 sequence (Q8NHL6 24-650)": "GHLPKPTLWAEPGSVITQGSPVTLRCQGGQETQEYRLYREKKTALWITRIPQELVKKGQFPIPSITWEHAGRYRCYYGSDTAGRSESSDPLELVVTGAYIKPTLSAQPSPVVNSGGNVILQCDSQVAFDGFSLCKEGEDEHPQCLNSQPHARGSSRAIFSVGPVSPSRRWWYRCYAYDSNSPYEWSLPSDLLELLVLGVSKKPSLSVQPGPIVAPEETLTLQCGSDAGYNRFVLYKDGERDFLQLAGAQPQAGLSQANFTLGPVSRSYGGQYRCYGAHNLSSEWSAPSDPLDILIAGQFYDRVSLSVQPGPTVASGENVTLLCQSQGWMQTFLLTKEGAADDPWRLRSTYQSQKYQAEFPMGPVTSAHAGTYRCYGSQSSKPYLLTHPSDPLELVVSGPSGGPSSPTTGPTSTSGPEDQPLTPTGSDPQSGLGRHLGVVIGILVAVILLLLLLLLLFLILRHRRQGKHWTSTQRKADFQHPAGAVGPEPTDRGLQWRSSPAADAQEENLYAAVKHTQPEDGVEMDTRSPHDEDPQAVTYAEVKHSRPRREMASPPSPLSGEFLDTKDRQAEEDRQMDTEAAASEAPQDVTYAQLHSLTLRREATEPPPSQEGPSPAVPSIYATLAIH", "assay": "flow cytometry titration on cells transfected with wild-type ILT2 (WT)"}, "ILT2 mutant 3b": {"target": "T3, ILT2 mutant 3b (human, UniProt Q8NHL6 24-650)", "T3 construct": "Transfected in HEK-293T cells", "T3 sequence (Q8NHL6 other isoform, or with tags, fused parts or gaps mutant)": "as the sequence (Q8NHL6 24-650) above, with Q18A, W67A, Y99A, I100S, V126S, S181A, E184G counted along it", "assay": "flow cytometry, HEK293T cells with ILT2 mutant"}, "ILT2 mutant 4-5": {"target": "T4, ILT2 mutant 4-5 (human, UniProt Q8NHL6 24-650)", "T4 construct": "Transfected in HEK-293T cells", "T4 sequence (Q8NHL6 other isoform, or with tags, fused parts or gaps mutant)": "as the sequence (Q8NHL6 24-650) above, with D341A, D342S, W344L, R345A, R347A counted along it", "assay": "flow cytometry, HEK293T cells with ILT2 mutant"}, "ILT2 mutant 4": {"target": "T5, ILT2 mutant 4 (human, UniProt Q8NHL6 24-650)", "T5 construct": "Transfected in HEK-293T cells", "T5 sequence (Q8NHL6 other isoform, or with tags, fused parts or gaps mutant)": "as the sequence (Q8NHL6 24-650) above, with S132A, L145S, N146A, Q148H, P149S counted along it", "assay": "flow cytometry, HEK293T cells with ILT2 mutant"}, "ILT2 mutant 3": {"target": "T6, ILT2 mutant 3 (human, UniProt Q8NHL6 24-650)", "T6 construct": "Transfected in HEK-293T cells", "T6 sequence (Q8NHL6 other isoform, or with tags, fused parts or gaps mutant)": "as the sequence (Q8NHL6 24-650) above, with Y99A, I100S, V126S, A127S, D129A, N180R, S181A, E184G counted along it", "assay": "flow cytometry, HEK293T cells with ILT2 mutant"}, "ILT2 mutant 7": {"target": "T7, ILT2 mutant 7 (human, UniProt Q8NHL6 24-650)", "T7 construct": "Transfected in HEK-293T cells", "T7 sequence (Q8NHL6 other isoform, or with tags, fused parts or gaps mutant)": "as the sequence (Q8NHL6 24-650) above, with P166A, R169A, W171S, L191A, E193G, L195S, L197P counted along it", "assay": "flow cytometry, HEK293T cells with ILT2 mutant"}, "ILT2 mutant 5": {"target": "T8, ILT2 mutant 5 (human, UniProt Q8NHL6 24-650)", "T8 construct": "Transfected in HEK-293T cells", "T8 sequence (Q8NHL6 other isoform, or with tags, fused parts or gaps mutant)": "as the sequence (Q8NHL6 24-650) above, with A127S, D129A, Q148H, R152A, N180R counted along it", "assay": "flow cytometry, HEK293T cells with ILT2 mutant"}, "ILT2 mutant 4-3": {"target": "T9, ILT2 mutant 4-3 (human, UniProt Q8NHL6 24-650)", "T9 construct": "Transfected in HEK-293T cells", "T9 sequence (Q8NHL6 other isoform, or with tags, fused parts or gaps mutant)": "as the sequence (Q8NHL6 24-650) above, with Q324A, Q326S, S352A, Q353H, K354A counted along it", "assay": "flow cytometry, HEK293T cells with ILT2 mutant"}, "ILT2 mutant 8": {"target": "T10, ILT2 mutant 8 (human, UniProt Q8NHL6 24-650)", "T10 construct": "Transfected in HEK-293T cells", "T10 sequence (Q8NHL6 other isoform, or with tags, fused parts or gaps mutant)": "as the sequence (Q8NHL6 24-650) above, with V111S, N113A, L195S, L197P counted along it", "assay": "flow cytometry, HEK293T cells with ILT2 mutant"}, "ILT2 mutant 4-4": {"target": "T11, ILT2 mutant 4-4 (human, UniProt Q8NHL6 24-650)", "T11 construct": "Transfected in HEK-293T cells", "T11 sequence (Q8NHL6 other isoform, or with tags, fused parts or gaps mutant)": "as the sequence (Q8NHL6 24-650) above, with Q308A, P309G, N318A, T320A, E358S, G362S counted along it", "assay": "flow cytometry, HEK293T cells with ILT2 mutant"}, "ILT2 mutant 4-1": {"target": "T12, ILT2 mutant 4-1 (human, UniProt Q8NHL6 24-650)", "T12 construct": "Transfected in HEK-293T cells", "T12 sequence (Q8NHL6 other isoform, or with tags, fused parts or gaps mutant)": "as the sequence (Q8NHL6 24-650) above, with F299I, Y300R, D301A, W328G, Q378A, K381N counted along it", "assay": "flow cytometry, HEK293T cells with ILT2 mutant"}, "ILT2 mutant 4-2": {"target": "T13, ILT2 mutant 4-2 (human, UniProt Q8NHL6 24-650)", "T13 construct": "Transfected in HEK-293T cells", "T13 sequence (Q8NHL6 other isoform, or with tags, fused parts or gaps mutant)": "as the sequence (Q8NHL6 24-650) above, with W328G, Q330H, R347A, T349A, Y350S, Y355A counted along it", "assay": "flow cytometry, HEK293T cells with ILT2 mutant"}, "ILT2 mutant 6": {"target": "T14, ILT2 mutant 6 (human, UniProt Q8NHL6 24-650)", "T14 construct": "Transfected in HEK-293T cells", "T14 sequence (Q8NHL6 other isoform, or with tags, fused parts or gaps mutant)": "as the sequence (Q8NHL6 24-650) above, with Q107L, P108A, I119A, R156A counted along it", "assay": "flow cytometry, HEK293T cells with ILT2 mutant"}, "ILT2 mutant 4-1b": {"target": "T15, ILT2 mutant 4-1b (human, UniProt Q8NHL6 24-650)", "T15 construct": "Transfected in HEK-293T cells", "T15 sequence (Q8NHL6 other isoform, or with tags, fused parts or gaps mutant)": "as the sequence (Q8NHL6 24-650) above, with Y300R, D301A, R302A, S304F, H387A, D390A counted along it", "assay": "flow cytometry, HEK293T cells with ILT2 mutant"}, "ILT2 mutant 2": {"target": "T16, ILT2 mutant 2 (human, UniProt Q8NHL6 24-650)", "T16 construct": "Transfected in HEK-293T cells; also called M2", "T16 sequence (Q8NHL6 other isoform, or with tags, fused parts or gaps mutant)": "as the sequence (Q8NHL6 24-650) above, with E34A, R36A, Y76I, A82S, R84L counted along it", "assay": "flow cytometry, HEK293T cells with ILT2 mutant"}}, "data": [{"binder": "B1", "values": [{"measurement": "kon", "setting": "[1]", "value": 280000, "unit": "M⁻¹ s⁻¹"}, {"measurement": "EC50 (read off the curve)", "setting": "[2]", "value": "~1", "unit": "µg/mL"}]}, {"binder": "B2", "values": [{"measurement": "binding result", "setting": "ILT2 mutant 3b", "value": "binds"}, {"measurement": "binding result", "setting": "ILT2 mutant 4-5", "value": "binds"}, {"measurement": "binding result", "setting": "ILT2 mutant 4", "value": "binds"}, {"measurement": "binding result", "setting": "ILT2 mutant 3", "value": "binds"}, {"measurement": "binding result", "setting": "ILT2 mutant 7", "value": "binds"}, {"measurement": "binding result", "setting": "ILT2 mutant 5", "value": "binds"}, {"measurement": "binding result", "setting": "ILT2 mutant 4-3", "value": "binds"}, {"measurement": "binding result", "setting": "ILT2 mutant 8", "value": "binds"}, {"measurement": "binding result", "setting": "ILT2 mutant 4-4", "value": "binds"}, {"measurement": "binding result", "setting": "ILT2 mutant 4-1", "value": "binds"}, {"measurement": "binding result", "setting": "ILT2 mutant 4-2", "value": "binds"}, {"measurement": "binding result", "setting": "ILT2 mutant 6", "value": "binds"}, {"measurement": "binding result", "setting": "ILT2 mutant 4-1b", "value": "binds"}]}, {"binder": "B3", "values": [{"measurement": "kon", "setting": "[1]", "value": 750000, "unit": "M⁻¹ s⁻¹"}]}, {"binder": "B4", "values": [{"measurement": "kon", "setting": "[1]", "value": 660000, "unit": "M⁻¹ s⁻¹"}]}, {"binder": "B5", "values": [{"measurement": "binding result", "setting": "ILT2 mutant 2", "value": "no binding"}]}]}
